# In patent publication US20180258158A1 (Bristol-Myers Squibb, published 2018):
# Like-named read-outs stand apart in the source and are kept apart here.
# Experiments:
# [1] = molecular target: T1, human serum albumin (HSA), full length (human, UniProt P02768 25-609); assay: SPR off-rate ratio to parent ADX_7016_A01, HSA, 25 C
# T1 construct: mature; Immobilized on CM5 chip (SPR) or coated on plates (ELISA)
# Description: (§1) Measurements were conducted by SPR and ELISA. SPR was conducted as follows. Full length HSA or mouse albumin was immobilized on a Biacore T series CM5 chip at 15 ug/mL in 10 mM acetate buffer (pH 5.0) buffer using standard NHS/EDC coupling, to a surface density of approximately 1000-1100 RU. For off-rate measurements at 25° C., PKE Adnectins were applied as analytes at 500 nM in HBS-P+(0.01 M HEPES pH 7.4, 0.15 M NaCl, 0.005% v/v Surfactant P20) running buffer at a flow rate of 20ul/min for 120 s over the immobilized albumins, followed by 800 s for dissociation. […] Regeneration of the chip surface between cycles was accomplished with two 30 second pulses of 10 mM Glycine, pH 2.0. Kinetic traces of reference-subtracted sensorgrams were fit to a 1:1 binding model for affinity using the Biaevaluation software. Only the dissociation phase was fit for determination of off-rates.
# [2] = molecular target: T2, mouse serum albumin (MSA), full length (mouse, UniProt P07724 25-608); assay: direct binding ELISA, coated MSA, anti-His-HRP; set-up: unit not given here
# T2 construct: mature; Immobilized on CM5 chip (SPR) or coated on plates (ELISA); also called mouse albumin; murine serum albumin
# Description: (§2) Direct binding ELISA assays were conducted as follows. Full length human and murine serum albumin at 10ug/ml in PBS were coated on Nunc Maxisorp plates overnight at 4° C. Plates were blocked in casein/PBS buffer. PKE Adnectins were allowed to bind over a 4-point concentration range of 0.032-4 uM for HSA and 0.008-1 uM for MSA. Bound Adnectin was detected by anti-His antibody conjugated with HRP (horseradish peroxidase) diluted 1:1500 in casein/PBS. Plates were developed with TMB substrate and absorbance read at 450 nm. Adnectins were binned as high, medium and low affinity binders based on the observed Ymax of the concentration response curves.
# [3] = molecular target: T1, human serum albumin (HSA), full length; assay: SPR off-rate ratio to parent ADX_7016_A01, HSA, 25 C; remark: listed apart in the source
# Description: as §1
# [4] = molecular target: T2, mouse serum albumin (MSA), full length; assay: SPR off-rate ratio to parent ADX_7016_A01, MSA, 25 C
# Description: as §1
# [5] = molecular target: T1, human serum albumin (HSA), full length; assay: SPR off-rate, immobilized HSA, 500 nM Adnectin, 25 C
# Description: as §1
# [6] = molecular target: T1, human serum albumin (HSA), full length; assay: as above; remark: listed apart in the source
# Description: as §1
# [7] = molecular target: T2, mouse serum albumin (MSA), full length; assay: SPR off-rate ratio to parent ADX_7016_A01, MSA, 25 C; remark: listed apart in the source
# Description: as §1
# [8] = molecular target: T1, human serum albumin (HSA), full length; assay: SPR, immobilized HSA, 500 nM Adnectin, 25 C
# Description: as §1
# [9] = molecular target: T1, human serum albumin (HSA), full length; assay: direct binding ELISA, coated HSA, anti-His-HRP; set-up: unit not given here
# Description: as §2
# [10] = molecular target: T2, mouse serum albumin (MSA), full length; assay: SPR off-rate, immobilized MSA, 500 nM Adnectin, 25 C
# Description: as §1
# [11] = molecular target: T2, mouse serum albumin (MSA), full length; assay: SPR, immobilized MSA, 500 nM Adnectin, 25 C
# Description: as §1
# [12] = molecular target: T2, mouse serum albumin (MSA), full length; assay: SPR off-rate, immobilized MSA, 500 nM Adnectin, 25 C; remark: listed apart in the source
# Description: as §1
# [13] = molecular target: T2, mouse serum albumin (MSA), full length; assay: direct binding ELISA, coated MSA, anti-His-HRP
# Description: as §2
# T1 sequence (P02768 25-609): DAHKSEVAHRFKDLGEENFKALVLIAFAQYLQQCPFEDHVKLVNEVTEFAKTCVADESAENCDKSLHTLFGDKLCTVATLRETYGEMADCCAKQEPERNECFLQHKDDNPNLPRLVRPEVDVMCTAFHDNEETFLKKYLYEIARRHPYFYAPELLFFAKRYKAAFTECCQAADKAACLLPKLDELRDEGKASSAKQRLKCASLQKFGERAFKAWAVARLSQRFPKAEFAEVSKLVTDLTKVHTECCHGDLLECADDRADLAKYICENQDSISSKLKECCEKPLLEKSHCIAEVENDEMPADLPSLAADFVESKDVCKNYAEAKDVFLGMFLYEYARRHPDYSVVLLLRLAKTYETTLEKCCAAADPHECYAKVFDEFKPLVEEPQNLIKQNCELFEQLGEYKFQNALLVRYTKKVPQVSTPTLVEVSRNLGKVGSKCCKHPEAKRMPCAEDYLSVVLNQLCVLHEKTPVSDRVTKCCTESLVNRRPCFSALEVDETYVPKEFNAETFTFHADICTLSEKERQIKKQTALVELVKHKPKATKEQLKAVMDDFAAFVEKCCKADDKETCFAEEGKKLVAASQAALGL
HSA kd/Parent kd [1],MSA DB ELISA (OD450) Ymax obs [2],MSA DB ELISA (OD450) Ymin obs [2],HSA kd/Parent kd [3],MSA kd/Parent kd [4],koff [5] [s⁻¹],koff [6] [s⁻¹],MSA kd/Parent kd [7],HSA Binding (RU) [8] [RU],HSA DB ELISA (OD450) Ymax obs [9],HSA DB ELISA (OD450) Ymin obs [9],koff [10] [s⁻¹],MSA Binding (RU) [11] [RU],koff [12] [s⁻¹],MSA DB ELISA YMIN OBS (OD450) [13] [OD450],Binder
4.1,95,74,4.1,3.3,0.0011,0.0011,3.3,23,99,62,0.00142,62,0.00142,–,"ADX_6727_B04 (Y35S/K85S) (designed binder, Full His6-tagged entry) MGVSDVPRDLEVVAATPTSLLISWDAPAVTVRYYRITYGREVQKSSDLGPLYIYQEFTVPGSKSTATISGLKPGVDYTITVYAVTGSGESPASSSPISINYRTEIDKPSQHHHHHH"
–,–,–,–,–,–,0.01,–,–,–,–,0.0284,–,–,1,"ADX_6727_H08 (L38T/K85T) (designed binder, Full His6-tagged entry; Printed with the same substitutions as ADX_6727_B09) MGVSDVPRDLEVVAATPTSLLISWDAPAVTVRYYRITYGREVQKYSDTGPLYIYQEFTVPGSKSTATISGLKPGVDYTITVYAVTGSGESPASSTPISINYRTEIDKPSQHHHHHH"
52.7,–,–,–,33.5,–,0.0142,–,24,–,–,0.0143,43,–,1,"ADX_6727_H06 (Y44Q/K85T) (designed binder, Full His6-tagged entry) MGVSDVPRDLEVVAATPTSLLISWDAPAVTVRYYRITYGREVQKYSDLGPLYIQQEFTVPGSKSTATISGLKPGVDYTITVYAVTGSGESPASSTPISINYRTEIDKPSQHHHHHH"
3.9,–,–,–,3.3,–,0.00105,–,26,–,–,0.00143,66,–,–,"ADX_6727_G06 (Y35A/K85S) (designed binder, Full His6-tagged entry) MGVSDVPRDLEVVAATPTSLLISWDAPAVTVRYYRITYGREVQKASDLGPLYIYQEFTVPGSKSTATISGLKPGVDYTITVYAVTGSGESPASSSPISINYRTEIDKPSQHHHHHH"
28.9,–,–,–,31.3,–,0.00777,–,24,–,–,0.0134,43,–,1,"ADX_6727_D03 (L41S) (designed binder, Full His6-tagged entry) MGVSDVPRDLEVVAATPTSLLISWDAPAVTVRYYRITYGREVQKYSDLGPSYIYQEFTVPGSKSTATISGLKPGVDYTITVYAVTGSGESPASSKPISINYRTEIDKPSQHHHHHH"
3.3,100,54,3.3,3.2,0.000892,0.000892,3.2,27,96,54,0.00138,63,0.00138,–,"ADX_6727_G10 (Y35S/K85A) (designed binder, Full His6-tagged entry) MGVSDVPRDLEVVAATPTSLLISWDAPAVTVRYYRITYGREVQKSSDLGPLYIYQEFTVPGSKSTATISGLKPGVDYTITVYAVTGSGESPASSAPISINYRTEIDKPSQHHHHHH"
–,27,1,34,–,0.00921,0.00921,61.2,–,16,2,0.0262,–,0.0262,1,"ADX_6727_B09 (L38T/K85T) (designed binder, Full His6-tagged entry) MGVSDVPRDLEVVAATPTSLLISWDAPAVTVRYYRITYGREVQKYSDTGPLYIYQEFTVPGSKSTATISGLKPGVDYTITVYAVTGSGESPASSTPISINYRTEIDKPSQHHHHHH"
